According to publication PMC8591604 (2021):
[ ]: non-standard residue; d: D form. pY = N[C@@H](Cc1ccc(OP(=O)(O)O)cc1)C(=O)O

T1: N-SH2 domain of SHP2 (residues 2–111) (human, UniProt Q06124 2-111)
T1 chain: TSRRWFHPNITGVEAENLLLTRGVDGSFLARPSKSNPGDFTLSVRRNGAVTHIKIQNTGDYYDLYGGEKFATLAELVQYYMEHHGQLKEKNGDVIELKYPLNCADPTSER


Legend:
[1] = molecular target: T1, N-SH2 domain of SHP2 (residues 2–111); test: FP; displacement of CF-P9W5
[2] = molecular target: T1, N-SH2 domain of SHP2 (residues 2–111); test: FP; displacement of CF-P9W5
[3] = molecular target: T1, N-SH2 domain of SHP2 (residues 2–111); test: FP
[4] = molecular target: T1, N-SH2 domain of SHP2 (residues 2–111); test: FP

Binder	Kd [1]	EC50 [2]	EC50 [3]	Kd [4]
Ac-LN[pY]IDLDL-NH2 (SMILES CC[C@H](C)[C@H](NC(=O)[C@H](Cc1ccc(OP(=O)(O)O)cc1)NC(=O)[C@H](CC(N)=O)NC(=O)[C@H](CC(C)C)NC(C)=O)C(=O)N[C@@H](CC(=O)O)C(=O)N[C@@H](CC(C)C)C(=O)N[C@@H](CC(=O)O)C(=O)N[C@@H](CC(C)C)C(N)=O) [P8, unlabeled IRS-1 pY1172 peptide, residues −2 to +5]	22 nM	47 nM	–	–
Ac-LN[pY]IDLDW-NH2 [P8W5, P8 analogue with W at position +5]	–	–	5.4 nM	–
Ac-LN[pY]IDLEW-NH2 (SMILES CC[C@H](C)[C@H](NC(=O)[C@H](Cc1ccc(OP(=O)(O)O)cc1)NC(=O)[C@H](CC(N)=O)NC(=O)[C@H](CC(C)C)NC(C)=O)C(=O)N[C@@H](CC(=O)O)C(=O)N[C@@H](CC(C)C)C(=O)N[C@@H](CCC(=O)O)C(=O)N[C@@H](Cc1c[nH]c2ccccc12)C(N)=O) [P8E4W5, P8 analogue with E at position +4 and W at position +5]	–	–	11 nM	4 nM
Ac-LN[pY]IDLDF-NH2 (SMILES CC[C@H](C)[C@H](NC(=O)[C@H](Cc1ccc(OP(=O)(O)O)cc1)NC(=O)[C@H](CC(N)=O)NC(=O)[C@H](CC(C)C)NC(C)=O)C(=O)N[C@@H](CC(=O)O)C(=O)N[C@@H](CC(C)C)C(=O)N[C@@H](CC(=O)O)C(=O)N[C@@H](Cc1ccccc1)C(N)=O) [P8F5, P8 analogue with F at position +5]	–	–	16 nM	7 nM
